Key:
[1] = molecular target: full-length 3xFLAG-tagged Nth1^S83A (S. cerevisiae) (UniProt P32356); experiment: co-IP; Nth1-3xFLAG precipitated with anti-FLAG M2 magnetic beads, Bmh1-V5 detected by blot; stationary phase cells recovered by dilution in 1% glucose minimal medium (5 min after glucose replenishment); 25 mM Tris-HCl pH 7.5, 150 mM NaCl, 5 mM CaCl2, 0.1% Triton X-100, 4 °C, 1 h
Bmh1 = Bmh1 (UniProt P29311); experiment: anti-FLAG co-IP, anti-V5 blot; conditions: reference: wild type
[2] = molecular target: T1, Nth1-Strep phosphorylated in vitro with PKA and CyclinB-Cdk1 (S. cerevisiae, UniProt P32356 1-751, full phosphorylation by Cdk1 (site S66) and partial phosphorylation of the PKA sites by PKA (15 nM or 1.5 nM) in vitro); experiment: pull-down; called co-IP by the paper; 6xHis-Bmh1 from BL21RP lysate loaded on Chelating Sepharose and washed, mixed 10 min with in vitro phosphorylated Nth1-Strep (200 ng per sample); washed with 25 mM Tris-HCl pH 7.4, 150 mM NaCl, 5 mM CaCl2; bound Nth1-Strep detected by blot (StrepMAB-Classic); conditions: both partners purified
T1 construct: neutral trehalase Nth1, S. cerevisiae, full length, expressed from pASK-Iba3; also called Nth1-Strep-tagged; source: E. coli BL21(DE3)RP, purified (Strep-Tactin II Superflow), phosphorylated in vitro with PKA and cyclin B-Cdk1
T1 sequence (looked up): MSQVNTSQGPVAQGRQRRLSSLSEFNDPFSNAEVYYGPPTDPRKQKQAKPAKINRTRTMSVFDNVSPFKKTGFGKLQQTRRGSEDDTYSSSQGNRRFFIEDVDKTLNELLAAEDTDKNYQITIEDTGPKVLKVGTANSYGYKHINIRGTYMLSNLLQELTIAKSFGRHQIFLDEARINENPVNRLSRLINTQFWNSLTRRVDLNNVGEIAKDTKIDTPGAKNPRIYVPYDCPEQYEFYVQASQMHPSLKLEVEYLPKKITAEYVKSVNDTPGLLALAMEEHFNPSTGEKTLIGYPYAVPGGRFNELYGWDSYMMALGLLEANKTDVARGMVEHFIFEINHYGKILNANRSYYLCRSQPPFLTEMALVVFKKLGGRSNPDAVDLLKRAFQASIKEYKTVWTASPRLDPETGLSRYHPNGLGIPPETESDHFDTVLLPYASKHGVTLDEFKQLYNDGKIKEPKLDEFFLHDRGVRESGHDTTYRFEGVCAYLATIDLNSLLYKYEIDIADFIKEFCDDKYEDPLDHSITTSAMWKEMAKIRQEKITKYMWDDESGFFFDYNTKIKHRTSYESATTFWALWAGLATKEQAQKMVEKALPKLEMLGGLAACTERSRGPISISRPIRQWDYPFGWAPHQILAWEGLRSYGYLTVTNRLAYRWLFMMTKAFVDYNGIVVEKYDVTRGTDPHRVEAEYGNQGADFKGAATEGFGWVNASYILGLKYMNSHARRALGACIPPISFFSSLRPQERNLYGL

[3] = molecular target: T2, recombinant full-length 6xHis-tagged Nth1 phosphorylated in vitro with PKA (S. cerevisiae, UniProt P32356 1-751, fully phosphorylated with 3 nM PKA in vitro); experiment: phosphatase shielding assay (Phos-tag autoradiograph and mass spectrometry); 1 µM 6xHis-Nth1 phosphorylated with 3 nM PKA in presence or absence of Bmh1 (5:1, Bmh1:Nth1); at 30 min PKA inhibitor and lambda phosphatase (90 U/µl, 1 mM MnCl2) added; conditions: both partners purified
T2 construct: neutral trehalase Nth1, S. cerevisiae, full length, expressed from pET28a; also called 6xHis-Nth1
T2 sequence (looked up): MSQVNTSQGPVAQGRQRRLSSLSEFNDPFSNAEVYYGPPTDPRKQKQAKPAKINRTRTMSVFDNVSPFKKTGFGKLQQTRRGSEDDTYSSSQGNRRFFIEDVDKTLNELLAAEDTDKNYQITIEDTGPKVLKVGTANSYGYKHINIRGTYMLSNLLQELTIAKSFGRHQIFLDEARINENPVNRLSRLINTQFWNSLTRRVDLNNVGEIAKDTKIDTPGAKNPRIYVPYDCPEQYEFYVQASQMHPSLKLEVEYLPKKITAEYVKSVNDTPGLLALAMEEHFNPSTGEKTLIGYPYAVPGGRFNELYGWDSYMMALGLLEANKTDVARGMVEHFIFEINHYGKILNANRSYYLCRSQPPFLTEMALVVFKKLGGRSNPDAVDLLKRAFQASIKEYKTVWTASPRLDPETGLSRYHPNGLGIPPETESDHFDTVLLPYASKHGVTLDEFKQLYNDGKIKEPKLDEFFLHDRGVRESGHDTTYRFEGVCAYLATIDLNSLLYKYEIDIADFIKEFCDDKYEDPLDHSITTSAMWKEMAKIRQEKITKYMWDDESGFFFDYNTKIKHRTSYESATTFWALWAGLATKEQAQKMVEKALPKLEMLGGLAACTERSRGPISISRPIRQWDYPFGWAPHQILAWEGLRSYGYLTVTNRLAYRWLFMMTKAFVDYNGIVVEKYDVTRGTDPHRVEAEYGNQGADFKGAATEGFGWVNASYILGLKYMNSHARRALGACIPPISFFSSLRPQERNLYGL

## V5-tagged Bmh1 (from UniProt P29311 1-267) (natural protein)
[1]
  bound Bmh1, percent normalised to WT: < 10%

## Nth1 (from UniProt P32356) S83A
Bmh1; sites S83
  percent of reference: < 10%

## Nth1 (from UniProt P32356) S60A
Bmh1; sites S60
  percent of reference: 30%

## Nth1 (from UniProt P32356) S66A
Bmh1; sites S66
  percent of reference: 50%

B1: recombinant full-length 6xHis-tagged Bmh1 (natural protein, S. cerevisiae, UniProt P29311 1-267, looked up)
chain: MSTSREDSVYLAKLAEQAERYEEMVENMKTVASSGQELSVEERNLLSVAYKNVIGARRASWRIVSSIEQKEESKEKSEHQVELICSYRSKIETELTKISDDILSVLDSHLIPSATTGESKVFYYKMKGDYHRYLAEFSSGDAREKATNASLEAYKTASEIATTELPPTHPIRLGLALNFSVFYYEIQNSPDKACHLAKQAFDDAIAELDTLSEESYKDSTLIMQLLRDNLTLWTSDMSESGQAEDQQQQQQHQQQQPPAAAEGEAPK
notes: 14-3-3 protein Bmh1, S. cerevisiae, full length, expressed from pET28a; also called 6xHis-Bmh1; Bhm1; source: E. coli BL21(DE3)RP
[2]
  binding result: binds
[3]
  binding result: binds
